Laboratory results as given in publication PMC4072508, “Genome-Wide Prediction and Validation of Peptides That Bind Human Prosurvival Bcl-2 Proteins” (PLoS Computational Biology, 2014).
“And” between values parts separate entries of the source, which are not always exact repeats. Equal entries are not always repeated. Residues, ends and D or L forms follow the SMILES beside them. *: point of attachment. 5FAM = O=C1OC2(c3ccc(O)cc3Oc3cc(O)ccc32)c2ccc(C(=O)*)cc21

What was measured:
Bcl-xL = biological target: T1, Bcl-xL (Homo sapiens, UniProt Q07817); assay: LUMIER full-length protein interaction; type: binding; conditions: LUMIER results for Bcl-xL; for z-score 1.1: experiment 1, duplicate 1; for z-score 1.2: experiment 1, duplicate 2; for z-score 2.1: experiment 2, duplicate 1; for z-score 2.2: experiment 2, duplicate 2
T1 construct: myc-Bcl-xL SPOT array & FP; made in house
T1 sequence (Q07817 with tags, fused parts or gaps): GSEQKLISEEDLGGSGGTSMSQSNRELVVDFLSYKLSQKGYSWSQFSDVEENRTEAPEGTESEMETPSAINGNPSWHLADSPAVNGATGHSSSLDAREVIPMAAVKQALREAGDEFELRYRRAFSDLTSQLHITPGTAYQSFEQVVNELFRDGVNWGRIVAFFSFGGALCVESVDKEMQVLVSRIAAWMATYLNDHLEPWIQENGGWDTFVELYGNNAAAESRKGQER
Protocol: (§1) The LUMIER assay was carried out as previously described with the following modifications. A stable cell line expressing receptor tagged on the N-terminus with Nanoluc luciferase was created (the prey). […] Each bait construct was transfected into the receptor-luciferase cells in a 96-well format and after 48 hours the cells were lysed and transferred to 384-well plates coated with anti-FLAG. After incubation and washing, luminescence was measured to quantify how much receptor-luciferase was captured by the bait protein. Anti-Flag ELISA signal was used to exclude bait proteins that were not expressed. The experiment was carried out two times, each in duplicate.

Mcl-1 = biological target: T2, Mcl-1 (Homo sapiens, UniProt Q07820); assay: LUMIER full-length protein interaction; type: binding; conditions: LUMIER results for Mcl-1, Z-score relative to Gaussian fit of the data; for z-score 1.2: experiment 1, duplicate 2; for z-score 2.1: experiment 2, duplicate 1; for z-score 2.2: experiment 2, duplicate 2
T2 construct: myc-Mcl-1 SPOT array & FP; made in house
T2 sequence (Q07820 with tags, fused parts or gaps): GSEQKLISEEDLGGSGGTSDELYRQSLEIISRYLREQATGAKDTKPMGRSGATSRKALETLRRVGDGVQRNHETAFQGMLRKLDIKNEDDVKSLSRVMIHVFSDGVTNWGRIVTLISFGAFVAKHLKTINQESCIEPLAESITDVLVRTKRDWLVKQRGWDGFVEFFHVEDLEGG
Protocol: as §1

[1] = Z-score relative to Gaussian fit of the data
[2] = Z-score of the interaction relative to the Gaussian fit of the data

Compound | z-score 1.1 (Bcl-xL; [1]) | z-score 1.2 (Bcl-xL; [1]) | z-score 2.1 (Bcl-xL; [1]) | z-score 2.2 (Bcl-xL; [1]) | z-score 1.2 (Mcl-1) | z-score 2.1 (Mcl-1) | z-score 2.2 (Mcl-1) | z-score 1.1 (Bcl-xL; [2]) | z-score 1.2 (Bcl-xL; [2]) | z-score 2.1 (Bcl-xL; [2]) | z-score 2.2 (Bcl-xL; [2])
ZNF295 (ERLKGQLCDVLLIVGDQKFRAHKNVL) | 0.6872 | -1.979 | 2.441 | -0.4135 | 0.3792 | -0.9697 | 0.1208 |  |  |  | 
PRCP (DDMFEPHSWNLKELSDDCFQQWGVRP) | -0.9043 | 0.9292 | 0.4444 | 1.668 | 0.7633 | 0.7051 | 0.9311 |  |  |  | 
COL2A1 (VLLTLLVAAVLRCQGQDVQEAGSCVQ) | 1.515 | -1.523 | 1.61 | 2.141 |  | 1.806 | 2.677 |  |  |  | 
FBXW5 (LTETSLISGNLHRIGDITSCSVLWLN) |  |  | 1.152 and 2.217 |  |  |  |  |  |  |  | 
BBS10 (RMIVDCVSSHLKKTGDGAKTFIIFLC) | 1.141 and 1.702 |  |  |  |  | 0.6411 and 1.2239 |  |  |  |  | 
TTC31 (DLSSTFVSLALRKVGDWPLSARREKG) | 0.5842 | 0.512 | 0.1189 | 0.4568 | -0.2499 | -0.5416 | -0.2181 |  |  |  | 
NOL8 (KYDPSKYCHNLKKIGEDFSNTIPISS) | 1.001 | -1.268 | 4.4 | 3.656 | 0.3257 | 2.02 | 1.79 |  |  |  | 
CASP8 (PFKKMDFSRNLYDIGEQLDSEDLASL) | 0.03556 | -1.065 | 0.3161 | -0.06353 | -0.8504 | -0.06643 | -0.03009 |  |  |  | 
C7orf26 (FDHMVPLVEEINRLADELNPLNASQE) | 0.6785 | 0.5183 | 0.5393 | 0.7734 | 0.6167 | 1.59 | 1.598 |  |  |  | 
RNF160 (WLKGDILGEKLVNLADCLCNEDLESR) | -0.1237 | 0.7519 | 2.286 | 3.519 | 0.2603 |  | -0.3716 |  |  |  | 
DHX30 (PVESSWIAPELRLQSDDILPLGKDSG) | 5.589 | 0.08513 | 1.44 | 1.097 | 0.1736 | 1.579 | 0.3173 |  |  |  | 
ISOC1 (AGYELLIQKFLSLYGDQIDMHRKFVV) |  |  |  | 0.4271 and 0.3646 |  | 1.04 and 0.6675 | 0.5198 and 0.4144 |  |  |  | 
BCL2L11 (MRPEIWIAQELRRIGDEFNAYYARRV) |  |  |  |  | 9.774 | 11.6048 | 12.4336 |  |  |  | 
PRKD3 (IQENVDISTVYQIFADEVLGSGQFGI) |  |  |  |  | 0.6899 | 3.751 | 3.546 | 6.764 | -0.4537 | 1.665 | 5.133
DPF3 (SCMATVIHNPLKALGDQFYKEAIEHC) | 4.341 | 0.09731 | 0.3964 | 0.9401 | 0.1193 | -0.01021 | -0.07055 |  |  |  | 
DZIP3 (NGGLLEFHKSLQEIGDKNDHWFDIDP) | 0.7197 | 0.5899 | 1.027 | -0.02772 | 0.5092 | 0.307 | 0.2898 |  |  |  | 
CTSL2 (SQGKHGFTMAMNAFGDMTNEEFRQMM) | -0.437 | -1.625 | 0.4619 |  | -0.01526 | 0.02916 | -0.562 |  |  |  | 
SMPD2 (PYLSKHRADRMRRLGDFLNQESFDLA) | -0.2083 | 2.876 | -0.2736 | 2.724 | -0.1967 | -0.5316 | -0.9514 |  |  |  | 
STK11IP (DSLLWKLAGLLRESGDVVLSGCSTLS) | -2.105 | -2.491 | -0.2948 | 0.7075 | 0.4828 | -0.9757 | -1.0129 |  |  |  | 
PCNXL2 (LLDFFMVSILFSKLGDLLHKLQFVLT) | -0.7258 | 0.8817 | 0.72 | 1.005 | -1.056 | 0.4915 | -0.3857 |  |  |  | 

Results, then the compound that gave them:

z-score 1.1 (Bcl-xL; [1]) | z-score 1.2 (Bcl-xL; [1]) | z-score 2.1 (Bcl-xL; [1]) | z-score 2.2 (Bcl-xL; [1]) | z-score 1.2 (Mcl-1) | z-score 2.1 (Mcl-1) | z-score 2.2 (Mcl-1) | z-score 1.1 (Bcl-xL; [2]) | z-score 1.2 (Bcl-xL; [2]) | z-score 2.1 (Bcl-xL; [2]) | z-score 2.2 (Bcl-xL; [2]) | Compound
0.2486 | -0.6775 | 0.2039 | -0.7989 | -0.04596 | -0.1664 | -0.3437 |  |  |  |  | P2RX7 (QCPIFRLGDIFRETGDNFSDVAIQGG)
0.8939 | -0.01936 | 1.1339 | 1.068 |  | 1.332 | 1.084 |  |  |  |  | WRAP53 (RKDAELLCWDLRQSGYPLWSLGREVT)
-0.3372 | -0.9542 | 2.574 | 0.6781 | -0.6598 | 0.132 | -0.2801 |  |  |  |  | CC[C@H](C)[C@H](NC(=O)[C@@H]1CCCN1C(=O)[C@H](CCCNC(=N)N)NC(=O)[C@H](CCCNC(=N)N)NC(=O)[C@@H]1CCCN1C(=O)[C@H](CC(N)=O)NC(=O)[C@H](C)NC(=O)[C@H](CC(C)C)NC(=O)[C@H](CCSC)NC(=O)[C@H](CC(=O)O)NC(=O)[C@H](CO)NC(=O)[C@H](Cc1c[nH]c2ccccc12)NC(=O)[C@H](Cc1c[nH]cn1)NC(=O)[C@H](CCCNC(=N)N)NC(=O)[C@H](CC(C)C)NC(=O)[C@H](CCC(=O)O)NC(=O)[C@H](C)NC(=O)CNC(=O)[C@@H](NC(=O)[C@H](CO)NC(=O)[C@H](CC(N)=O)NC(=O)[C@H](Cc1ccc(O)cc1)NC(=O)CNC(=O)[C@@H](NC(=O)[C@H](Cc1ccccc1)NC(=O)c1ccc2c(c1)C(=O)OC21c2ccc(O)cc2Oc2cc(O)ccc21)C(C)C)[C@@H](C)O)C(=O)N[C@@H](C)C(N)=O [SYT1] (5FAM-FVGYNSTGAELRHWSDMLANPRRPIA-NH2)
 |  |  |  | 0.5442 | 0.4209 | 0.563 | 4.105 | 0.5337 | -0.08078 | 0.3897 | WDR60 (GGRVKLVHSALIQLGDSLSHKGNEFW)
-0.3595 | -2.173 | -0.3545 | -0.635 | -0.5708 | -0.006199 | -0.3116 |  |  |  |  | PRDX4 (LDFTFVCPTEIIAFGDRLEEFRSINT)
-0.516 | -0.4557 | 0.7398 | 0.3954 | 0.404 | 2.487 | 1.818 |  |  |  |  | TMEM184C (SDIRDDISEQVRHVGRTVRGHPRKKL)
0.3413 | 1.938 | 0.8331 |  | 0.1627 |  | 0.6441 |  |  |  |  | MAPT
-1.0584 | -0.5034 | 0.7016 | 0.6909 | 0.7662 | 0.7867 |  |  |  |  |  | FADD (APGEEDLCAAFNVICDNVGKDWRRLA)
0.6815 |  | 3.9688 | 2.046 | 0.6268 | -0.03415 | -0.3116 |  |  |  |  | SIPA1 (TAGLRPGARLLRVCGQTLPSLRPEAA)
-0.9348 | -0.7792 | -0.04647 | -0.8049 | -0.6103 | -1.0129 | -1.44 |  |  |  |  | HEXDC (VLELHPGAQRLHIGCDEVYYLGEGEA)
 |  | 1.607 and 2.423 |  | 0.9409 and 0.8269 | 2.599 and 2.298 | 1.567 and 1.468 |  |  |  |  | ATP6AP2 (RDASKILVDALQKFADDMYSLYGGNA)
-0.3811 | 0.4308 | -0.2564 | -0.4829 | 0.1831 | -0.6136 | -0.9152 |  |  |  |  | PPAT (RLRQLGVAKKFGVLSDNFKGKRIVLV)
